Source: article PMC11148156, “Substrate scope expansion of 4-phenol oxidases by rational enzyme selection and sequence-function relations” (Communications Chemistry, 2024)

Columns and labels:
[1] = target: T1, RjEUGO (Rhodococcus jostii, UniProt Q0SBK1); assay: xylenol orange assay (initial rate); format: biochemical; settings: 2 mM substrate, 50 mM potassium phosphate pH 7.5
T1 construct: gene RHA1_ro03282; recombinant, expressed in E. coli; flavin-dependent; details in supplement
T1 sequence (Q0SBK1 1-526): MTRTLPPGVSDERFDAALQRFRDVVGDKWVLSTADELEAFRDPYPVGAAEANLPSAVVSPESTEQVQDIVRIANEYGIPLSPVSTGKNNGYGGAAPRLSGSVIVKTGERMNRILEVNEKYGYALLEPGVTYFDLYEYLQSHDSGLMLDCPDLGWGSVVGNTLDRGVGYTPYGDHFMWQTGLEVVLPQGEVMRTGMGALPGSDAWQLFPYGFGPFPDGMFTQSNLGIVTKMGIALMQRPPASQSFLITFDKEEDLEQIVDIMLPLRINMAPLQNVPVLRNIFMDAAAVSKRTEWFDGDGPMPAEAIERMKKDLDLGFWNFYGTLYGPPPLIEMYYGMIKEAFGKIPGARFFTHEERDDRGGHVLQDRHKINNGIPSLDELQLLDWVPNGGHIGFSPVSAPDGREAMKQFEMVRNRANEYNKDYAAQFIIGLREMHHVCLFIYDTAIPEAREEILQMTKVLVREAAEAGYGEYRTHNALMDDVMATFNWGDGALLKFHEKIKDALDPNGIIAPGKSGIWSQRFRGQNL

[2] = target: T2, NspEUGO (Nocardioides sp. YR527, UniProt A0A1G9AL67); assay: xylenol orange assay (initial rate); format: biochemical; settings: 2 mM substrate, 50 mM potassium phosphate pH 7.5
T2 construct: gene SAMN05428985_103382; recombinant, expressed in E. coli; flavin-dependent; details in supplement
T2 sequence (A0A1G9AL67 1-529): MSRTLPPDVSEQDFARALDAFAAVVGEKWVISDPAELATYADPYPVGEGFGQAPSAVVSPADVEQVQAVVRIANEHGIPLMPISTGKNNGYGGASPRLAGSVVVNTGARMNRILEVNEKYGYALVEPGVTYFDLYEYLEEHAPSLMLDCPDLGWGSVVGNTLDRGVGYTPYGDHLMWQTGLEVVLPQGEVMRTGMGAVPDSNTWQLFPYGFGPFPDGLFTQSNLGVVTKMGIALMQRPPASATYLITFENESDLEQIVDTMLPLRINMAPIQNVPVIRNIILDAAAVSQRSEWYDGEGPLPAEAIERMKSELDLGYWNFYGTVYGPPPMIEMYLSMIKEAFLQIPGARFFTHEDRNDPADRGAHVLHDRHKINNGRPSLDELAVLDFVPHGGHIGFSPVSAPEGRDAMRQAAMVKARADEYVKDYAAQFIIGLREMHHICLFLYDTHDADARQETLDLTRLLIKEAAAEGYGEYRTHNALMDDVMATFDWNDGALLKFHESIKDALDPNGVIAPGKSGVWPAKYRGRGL

[3] = substrate: OCc1ccc(O)cc1; assay: Michaelis-Menten kinetics; format: biochemical, Arthrobacter sp. UCD-GKA; settings: pH 9.5
[4] = substrate: COc1cc(CO)ccc1O; assay: Michaelis-Menten kinetics; format: biochemical, Arthrobacter sp. UCD-GKA; settings: optimal conditions for both enzymes (see supplement)
[5] = substrate: C=CCc1ccc(O)c(OC)c1; assay: Michaelis-Menten kinetics; format: biochemical, Arthrobacter sp. UCD-GKA; settings: optimal conditions for both enzymes (see supplement)
[6] = substrate: OCc1ccc(O)cc1; assay: Michaelis-Menten kinetics; format: biochemical, Geodermatophilaceae bacterium; settings: pH 9.5
[7] = substrate: COc1cc(CO)ccc1O; assay: Michaelis-Menten kinetics; format: biochemical, Geodermatophilaceae bacterium; settings: optimal conditions for both enzymes (see supplement)
[8] = substrate: C=CCc1ccc(O)c(OC)c1; assay: Michaelis-Menten kinetics; format: biochemical, Geodermatophilaceae bacterium; settings: optimal conditions for both enzymes (see supplement)

## Oc1ccc(C2CCCC2)cc1 [compound 42, 4-cyclopentyl phenol]
[1]
  xylenol orange assay (initial rate): RjEUGO which was the most active wildtype enzyme for 4-cyclopentyl phenol

## CCCCOCc1ccc(O)c(OC)c1 [compound 13, vanillyl butyl ether]
[2]
  xylenol orange assay (initial rate): NspEUGO which is the most active wildtype enzyme on vanillyl butyl ether

B1: AspEUGO (Arthrobacter sp. UCD-GKA) (protein)
chain: MSRIIPLDVSEADFDAALEEFRGALGAQWVLSSPVELEAFADPYPTTNGLEFLPGAVISPSTPEEVQVIVGIANKYKVPLSPVSTGKNLGYGGAAPRLSGTVVVNTGERMNKIIEVNEKYAFALVEPGVTYFDLYNHIQEKGYNLWIDVPDLGWGSIVGNTLDRGVGYTPYGDHWSWQTGLEVVLPDGDLLRTGMGAMSGSDAWQLFPYGFGPYPDGLFSQSNYGIVTKLGIALMPAPPASETFLITFENEADLEQVIDIMLPLRIGMAPLQNVPVLRNIFMDAAAVSHRDEWHAGPGHLSDDEIKTMQRELNLGYWNLYASVYGPPPQIEMFLAMIKEAFLQVPGARFATTKDRPESPEDRGGHVLHDRHKINRGIPTIEERHLMDWVPNGGHTSFSPVSAPDGKDAMRQALMVKKRADEFGQDYAAQFIVGLREMHHICLFLYNTAVPRERDNTLAMARILVEEAADAGYGEYRTHLALMDQVMATFDYNDGALLRFHERVKDALDPNSIMAPGKSGIWGARYRDRGLELLHAPALEDSTPNSA
notes: recombinant, expressed in E. coli; flavin-dependent; details in supplement
[3]
  Km: 33 ± 2 µM
  kcat: 18 ± 1 s⁻¹
[4]
  Km: 49 ± 3 µM
  kcat: 24 ± 0.8 s⁻¹
[5]
  Km: 28 ± 1 µM
  kcat: 21 ± 0.4 s⁻¹

B2: GbEUGO (Geodermatophilaceae bacterium) (protein)
chain: MSRILPPELSDSDFDAAIARFRDVVGEKHVLTEDGDLSRYRDPYPVGGQPSGGASAAVAPETSEQVQEIVRIANEYGVPLSPISTGKNNGYGGGQPRLSGAVVVDTGLRMNRILEVNEKFGYALLEPGVSYFDLYEHLQANAPSLMLDCPDLGWGSVVGNTLDRGVGYTPYGDHLMWQTGLEVVLPTGDVMRTGMGAVPGSNAWQLFPYGFGPFPDGLFTQSNLGIVTKMGIALMQRPPASETFVISFDREEDLEQVVDIMLPLRINMAPLQNVPVLRNIILDAGVVSKRTEWHDGDGPLPPEAISRMKAELGLGYWNLYGTVYGPPPVLEAHLGIIKDAFLQVPGSRFATTQDRDEATDRGAHVLHDRHRINNGIPSLDEMKLMEFVPNGGHIGFSPVSAPDGADALRQSQMVRRRADEYRKDYAAQFIVGLREMHHIGLFLFDTTDAVARQETLDLARVLIDEAAAAGYGEYRTHNALMDQVMGTYNWGGDALLKFHETIKDALDPNSVMAPGKSGIWGRKYRDRALA
notes: as for B1
[6]
  Km: 455 ± 50 µM
  kcat: 18 ± 1 s⁻¹
[7]
  Km: 31 ± 1 µM
  kcat: 16 ± 0.4 s⁻¹
[8]
  Km: 23 ± 1 µM
  kcat: 23 ± 0.2 s⁻¹
